# Entries after “also recorded” stand apart in the source; their conditions may differ.
# B1: NCPT-1.M1: MG+His6+NCPT-1 fusion protein, SEQ ID NO: 5 (protein)
# chain: MGHHHHHHTLSSPNSKNEKALGRKINSWESSRSGHSFLSNLHLRNGELVIHEKGFYYIYSQTYFRFQEEIKENTKNDKQMVQYIYKYTSYPDPILLMKSARNSCWSKDAEYGLYSIYQGGIFELKENDRIFVSVTNEHLIDMDHEASFFGAFLVGGGGGGRVAAHITGTRGRSNT
# modifications: NCPT-1.M1 polypeptide sequence
# Columns and labels:
# [1] = tested on: human COLO 205 xenograft tumor; test: Inhibitory activity on human colon cancer xenograft tumors; format: in vivo, Balb/c nu mice
# Procedure: 4 to 5 weeks old Balb/c nu mice ♂ (Institute of Experimental Animals, Chinese Academy of Medical Sciences) were subcutaneously inoculated with COLO 205 human colon tumor tissue pieces. When the tumor grew to the volume of 120 mm3, the tumor-bearing mice were divided into 4 groups (n=7/group), which were intraperitoneally injected with normal saline (negative control group), NCPT-1.M1 5 mg/kg, NCPT-1.M1 15 mg/kg and wtTRAIL 15 mg/kg once a day for 10 consecutive days. […] During the experiment, the tumor length diameter (a) and wide diameter (b) were measured every two days with a vernier caliper, and tumor volume (TV) was calculated according to the following formula: TV=½×a×b^2; From the above, the relative tumor volume (RTV) was calculated according to following formula: RTV=Vt/V0. Wherein V0 is the tumor volume measured on the day of the administration, but before administration (i.e., d0), and Vt is the tumor volume measured every time. The relative tumor proliferation rate T/C (%) is used as an evaluation index. Evaluation criteria: T/C (%)>40% means no effect; T/C (%)≦40% and the statistical significance of P<0.05 means being effective.
# T/C %=RTVT/RTVC*100%. (RTVT: RTV of the treatment group; […]: RTV of the negative control group).
# RPMI8226 xenograft tumor = test: Inhibitory activity on xenograft tumor of human multiple myeloma; format: in vivo, athymic nude mice; conditions: 15 mg/kg i.p. once a day for 8 consecutive days
# Procedure: FIG. 8. […] Athymic nude mice (Beijing Huafukang Biotechnology Co., Ltd.) were subcutaneously inoculated with RPMI8226 tumor cells (5×10^6/mouse). When the tumor grew to about 500 mm^3, the mice were divided into several groups, which were intraperitoneally injected with normal saline (control group), NCPT-1.M1 (15 mg/kg) and wild-type TRAIL (wtTRAIL, 15 mg/kg or 45 mg/kg) respectively once a day for 8 consecutive days. The tumor volumes were measured with a vernier caliper every two days.
# Athymic nude mice (Beijing Huafukang Biotechnology Co., Ltd.) were subcutaneously inoculated with 5×10^6 RPMI8226 tumor cells/mouse. When the tumor grew to the volume of 500 mm3, the mice were divided into several groups, which were intraperitoneally injected with normal saline (negative control group), NCPT-1.M1 (15 mg/kg) and wtTRAIL (15 mg/kg or 45 mg/kg) once a day for 8 consecutive days. The tumor volumes were measured with a caliper every two days.
# H460 cells = test: Cell survival by MTT assay with or without Caspase-8 inhibitor zIETD-fmk; format: cell-based, human; conditions: 24 h
# Procedure: H460 cells were incubated with NCPT-1.M1 (1.2 or 10 ng/ml) in the presence or absence of Caspase-8 inhibitor zIETD-fmk (concentration of 30 μmmol/L, added 1 h earlier than NCPT-1.M1) for 24 h, and then cell survival rate was measured by MTT assay.
# H460 cells were incubated with NCPT-1.M1 of 1.2 ng/ml and 10 ng/ml (the culture method is same as the above) for 24 h, and cell survival rates measured by MTT assay were 60% and 16%, respectively. […] Caspase-8 inhibitor zIETD-fmk (Santa Cruz) was added, and 1 h later, 1.2 ng/ml or 10 ng/ml NCPT-1.M1 was added and co-incubated for 24 h, then, the resulting cell survival rates were 100% and 90%, respectively.
# RPMI8226 tumor = test: Combination with melphalan and prednisone on human multiple myeloma xenograft tumor; format: in vivo, Balb/c nu athymic nude mice; conditions: NCPT-1.M1 15 mg/kg ip x10 days; melphalan 0.75 mg/kg po x5 days; prednisone 10 mg/kg po x10 days
# Procedure: Male Balb/c nu athymic nude mice (Beijing Huafukang Biotechnology Co., Ltd.) were subcutaneously inoculated with 5×10^6 RPMI8226 tumor cells/mouse. […] The tumor volumes were measured with a caliper every two days.
# [2] = tested on: human lung cancer cell line NCI-H460; test: TUNEL staining of apoptosis; format: cell-based; conditions: 15 ng/ml, 4 h
# Procedure: FIG. 4. TUNEL assay of apoptosis of human lung cancer cell line NCI-H460 induced by NCPT-1.M1. The NCI-H460 cells were incubated with NCPT-1.M1 (15 ng/ml) for 4 h and then prepared as smears before TUNEL staining. […] In control group, nucleus remains intact, and no characteristic brown stained chromatins are seen (A).
# During the process of apoptosis, the genomic DNA can be broken into double-strand, low molecular weight DNA fragments and high molecular weight single-stranded DNA fragments with broken ends (gaps), and these DNA strand gaps can be identified using enzyme-labeled nucleotide 3′-terminal labeling method. In the case of catalytic action of terminal deoxynucleotidyl transferase (TdT), FITC-labeled nucleotide can be incoporated to the free 3′ end nucleotide with template-independent manner, and thereby making the gap of the DNA strand labeled (TUNEL method). The labeling FITC can be recognized by horseradish peroxidase (POD) conjuncated sheep-derived Fab fragment. Upon development with DAB (3,3-diaminobenzidine), the cells stained as brown, which were apoptotic cells, were examined under light microscopy. TUNEL technique is a common method to detect apoptosis. The apoptosis upon incubation of NCI-H460 cell with NCPT-1.M1 was examined using TUNEL technique. […]
# [3] = 5 mg/kg i.p. once a day for 10 days
# [4] = 15 mg/kg i.p. once a day for 10 days
molecule,measurement,setting,value
B1,relative tumor volume RTV,[1]; [3],1.39
same,tumor proliferation rate T/C(%),[1]; [3],29.89%
same,Tumor volume TV beginning,[1]; [3],117 ± 20.4 mm^3
same,Tumor volume TV ending,[1]; [3],197 mm^3
same,relative tumor volume RTV,[1]; [4],0.12
same,Tumor volume TV beginning,[1]; [4],118 ± 21.0 mm^3
same,Tumor volume TV ending,[1]; [4],15 mm^3
same,evaluation of efficacy (T/C ≦40% and P<0.05 means being effective),"[1]; both dosage groups of NCPT-1.M1 (5, 15 mg/kg), wtTRAIL 15 mg/kg",effective
same,Tumor growth rate compared with wtTRAIL 45 mg/kg,RPMI8226 xenograft tumor,significantly lower than that of TRAIL group with a dose of 45 mg/kg; also recorded: significantly lower than that of wtTRAIL group with a dose of 45 mg/kg
same,cell survival rate,"H460 cells; 1.2 ng/ml, 30 μmol/L zIETD-fmk added 1 h earlier",100%
same,cell survival rate,"H460 cells; 1.2 ng/ml, no inhibitor",60%
same,cell survival rate,"H460 cells; 10 ng/ml, 30 μmol/L zIETD-fmk added 1 h earlier",90%
same,cell survival rate,"H460 cells; 10 ng/ml, no inhibitor",16%
same,mice in which the tumors completely disappeared,RPMI8226 tumor,16%
same,apoptosis by TUNEL staining,[2],a large number of NCI-H460 cells experience apoptosis; also recorded: Almost all of the tumor cells exhibit characteristic of apoptosis

# Source: patent US9289468B2, “Fusion protein comprising circularly permuted form of trail/Apo2L, coding gene and use thereof” (Beijing Sunbio Biotech Co. Ltd., priority 2011, dated 2016)
